The values that follow are results of earlier work, collected in publication PMC10330121.

In general, Kd refers to the equilibrium constant for the complex coming apart.

Data set [1] addresses histone H3 N-terminal tail (Homo sapiens) (UniProt P68431).
For a further data set, the target named is PAF15 (Homo sapiens) (UniProt Q15004).
The target of data set [2] is VRK1-K4me3 (Homo sapiens) (UniProt Q99986).
VRK1-K4me3 (Homo sapiens), sequence (Q99986 whole entry): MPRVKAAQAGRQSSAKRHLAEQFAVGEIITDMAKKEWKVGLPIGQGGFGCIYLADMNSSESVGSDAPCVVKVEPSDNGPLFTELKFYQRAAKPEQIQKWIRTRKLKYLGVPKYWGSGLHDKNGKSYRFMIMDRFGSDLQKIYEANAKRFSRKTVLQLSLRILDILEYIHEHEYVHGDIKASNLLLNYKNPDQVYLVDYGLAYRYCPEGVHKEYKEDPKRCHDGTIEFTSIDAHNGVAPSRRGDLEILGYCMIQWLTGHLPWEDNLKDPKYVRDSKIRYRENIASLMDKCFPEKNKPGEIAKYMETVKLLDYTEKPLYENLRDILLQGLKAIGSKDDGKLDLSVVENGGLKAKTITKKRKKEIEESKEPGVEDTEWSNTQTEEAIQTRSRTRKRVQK

UHRF1 PHD, sequence (Q96T88 307-369): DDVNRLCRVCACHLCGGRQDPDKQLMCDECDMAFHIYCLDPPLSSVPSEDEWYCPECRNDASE
PAF15 (Homo sapiens), sequence (Q15004 whole entry): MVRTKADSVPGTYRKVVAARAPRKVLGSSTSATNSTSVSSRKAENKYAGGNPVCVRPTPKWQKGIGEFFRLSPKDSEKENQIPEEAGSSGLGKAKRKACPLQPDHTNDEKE
PHF8 PHD-Jumonji, sequence (Q9UPP1 37-483): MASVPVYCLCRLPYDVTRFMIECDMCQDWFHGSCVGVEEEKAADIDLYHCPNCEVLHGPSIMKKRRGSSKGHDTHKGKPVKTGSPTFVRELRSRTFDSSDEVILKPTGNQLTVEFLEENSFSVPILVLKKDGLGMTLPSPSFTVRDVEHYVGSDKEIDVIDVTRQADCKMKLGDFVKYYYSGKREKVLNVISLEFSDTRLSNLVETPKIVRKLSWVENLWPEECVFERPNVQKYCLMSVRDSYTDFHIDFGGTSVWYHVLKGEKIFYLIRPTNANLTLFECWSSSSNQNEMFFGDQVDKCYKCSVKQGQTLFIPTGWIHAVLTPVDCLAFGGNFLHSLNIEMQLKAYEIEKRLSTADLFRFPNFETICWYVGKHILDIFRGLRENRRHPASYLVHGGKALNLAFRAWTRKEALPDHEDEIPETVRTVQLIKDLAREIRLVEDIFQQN

UHRF1 PHD (from UniProt Q96T88): the dissociation constant Kd (in data set [1]; with PAF15 (Homo sapiens)) was 2000 nM each time.

Take PHF8 PHD-Jumonji (from UniProt Q9UPP1): the dissociation constant (Kd) in data set [2] was 42 nM.
